Consider one molecule from patent US20220018842A1 (FUKUSHIMA MEDICAL UNIVERSITY, published 2022).

Assay [1] concerns the target T1, claudin 6 (CLDN6) protein (human, UniProt P56747 1-220).
T1 construct: also called human CLDN6 protein
T1 sequence: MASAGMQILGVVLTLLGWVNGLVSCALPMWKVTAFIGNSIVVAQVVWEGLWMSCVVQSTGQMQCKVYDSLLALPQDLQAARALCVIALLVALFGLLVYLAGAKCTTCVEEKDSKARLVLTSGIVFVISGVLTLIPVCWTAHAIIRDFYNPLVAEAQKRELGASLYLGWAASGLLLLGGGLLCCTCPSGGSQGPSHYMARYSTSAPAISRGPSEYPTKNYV
Description: Western blot of extract of HEK293T cells expressing CLDN6.

Assay [2] concerns the target T2, antigen peptide having the amino acid sequence from the 208th position to the 220th position of the human … (human).
T2 construct: Coupled to KLH for immunisation
T2 peptide: SRGPSEYPTKNYV
Description: ELISA of hybridoma culture supernatant on coated antigen peptide. On the procedure: After 4 days of culture, the medium was exchanged with 100 μL of hybridoma medium. Positive clones were screened by ELISA using 50 μL of the culture supernatant 2 days after the exchange. The screening was performed by the following procedure.
First, the antigen peptide solution was diluted to 3 μg/mL, 100 μL was added to each well of a 96-well ELISA plate, and the mixture was allowed to stand overnight at 37° C. Then, the antigen peptide solution was removed from each well, the wells were washed with 200 μL of PBS, then a blocking solution (1% bovine serum albumin/PBS) was added, and the mixture was allowed to stand at 37° C. for 1 hour. Then, the blocking solution was removed from each well, the wells washed with 200 μL of PBS, 50 μL of culture supernatant was added, and the mixture was reacted at 37° C. for 1 hour. After removing the culture supernatant from each well, the wells were washed 3 times with 200 μL of PBS. […] After that, the secondary antibody solution was removed from each well, the wells were washed 3 times with PBS, and then the color was developed using TMB Substrate Set (BioLegend) with the method recommended by the manufacturer, and the absorbance was measured.
In general terms: An ELISA detects its analyte on a solid surface through an enzyme-linked reagent.

The target of assay [3] is T3, CLDN4 (UniProt O14493 1-209, limits assumed).
T3 construct: whole, on cells; also called claudin 4
T3 sequence (looked up): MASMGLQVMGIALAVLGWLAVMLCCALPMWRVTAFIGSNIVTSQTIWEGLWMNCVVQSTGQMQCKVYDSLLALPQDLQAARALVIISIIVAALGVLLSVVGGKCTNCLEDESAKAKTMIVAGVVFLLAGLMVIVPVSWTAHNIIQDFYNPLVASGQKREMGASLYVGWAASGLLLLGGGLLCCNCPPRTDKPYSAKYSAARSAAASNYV
Description: Western blot of extract of HEK293T cells expressing the claudin; undiluted culture supernatant. On the procedure: (§1) 48 hours after the introduction of each gene, protein was extracted using a lysate in which the proteolytic enzyme inhibitor, Complete mini EDTA-free (Roche Diagnostics) was added to CelLytic™ MT Cell Lysis Reagent (Sigma-Aldrich) at a concentration of […]. SDS-PAGE, […], and antibody reaction were sequentially performed according to a standard protocol, chemiluminescence was performed by ECL™ Prime Western Blotting Detection reagent (GE Healthcare), and images were taken using CCD imager Image Quant LAS4000 (GE Healthcare). The primary antibody was reacted overnight at 4° C. using a culture supernatant stock solution of αCLDN6 #C6C15-1, and the secondary antibodies were reacted for 30 minutes using ECL™ Rat IgG, HRP-linked whole antibody (Sigma-Aldrich) diluted 2,000-fold with PBS, and ECL™ Rabbit IgG and HRP-linked whole antibody (Sigma-Aldrich) described in Table 1 diluted 5,000-fold with PBS, respectively.
(§2) In order to confirm the antigen specificity and cross-reactivity of the anti-CLDN6 monoclonal antibody (αCLDN6 #C6C15-1) produced in the Examples, Western blotting was performed for CLDN1, CLDN4, CLDN5, CLDN6, and CLDN9 for verification.

Assay [4] has as its target T4, CLDN9 (UniProt O95484 1-217, limits assumed).
T4 construct: whole, on cells; also called claudin 9
T4 sequence (looked up): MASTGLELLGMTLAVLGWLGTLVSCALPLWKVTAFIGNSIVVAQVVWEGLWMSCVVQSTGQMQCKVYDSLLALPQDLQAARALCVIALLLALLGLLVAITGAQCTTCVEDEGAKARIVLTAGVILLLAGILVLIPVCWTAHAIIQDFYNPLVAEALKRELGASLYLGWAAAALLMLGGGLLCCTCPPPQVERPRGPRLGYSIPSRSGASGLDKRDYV
Described as above. On the procedure:
as §1, §2

In assay [5] the target is T5, CLDN5 (UniProt O00501 1-218, limits assumed).
T5 construct: whole, on cells; also called claudin 5
T5 sequence (looked up): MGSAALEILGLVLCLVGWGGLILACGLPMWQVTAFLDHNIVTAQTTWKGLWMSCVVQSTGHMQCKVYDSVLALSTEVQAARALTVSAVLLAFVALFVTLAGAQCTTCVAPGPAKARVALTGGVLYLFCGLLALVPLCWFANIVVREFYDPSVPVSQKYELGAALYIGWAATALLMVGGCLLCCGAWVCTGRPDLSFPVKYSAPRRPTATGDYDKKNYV
The description is as above. On the procedure:
as §1, §2

In assay [6] the target is T6, CLDN1 (UniProt O95832 1-211, limits assumed).
T6 construct: whole, on cells; also called claudin 1
T6 sequence (looked up): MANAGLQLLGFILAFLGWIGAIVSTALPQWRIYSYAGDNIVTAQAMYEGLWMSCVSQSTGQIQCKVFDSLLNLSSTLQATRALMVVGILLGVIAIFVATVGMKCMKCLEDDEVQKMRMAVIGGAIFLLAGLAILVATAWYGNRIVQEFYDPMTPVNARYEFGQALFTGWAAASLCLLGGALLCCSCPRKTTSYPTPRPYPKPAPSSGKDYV
Described as above. On the procedure: as §1, §2

B1: Rat αCLDN6 #C6C15-1 monoclonal antibody (antibody, V domains shown)
VH: EVKLVETGGGLVKPGGSLRLSCATSGFNFNDYFMNWVRQAPGKGLEWVAQIRNKNYNYATYYAESLEGRVTISRDDSKSSVYLQVSSLRAEDTAIYYCTRGAYWGQGVMVTVSS
VL: DIVMTQSPSFLSASVGERVTLSCRASQNINKYLDWYQQKLGEAPKLLIYDTNNLHAGIPSRFSGSGSGTDYTLTISSLQPEDVATYFCLQRNSWPYTFGAGTKLELK
notes: Rat hybridoma monoclonal antibody (detected with anti-rat IgG), used as undiluted culture supernatant; constant regions and isotype are not; also called αCLDN6 #C6C15-1 antibody; ACLDN6 #C6C15-1 antibody
For B1, the binding result in assay [1] was “binds”; in assay [2], “binds”; in assay [3], “no binding”; in assay [4], “no binding”; in assay [5], “no binding”; in assay [6], “no binding”.
